This is an account of results in patent US20130130320, “ENZYMES” (published 2013).

In one data set the test system is Tat (HIV-1?). The data set can be described thus: competition.
The target in the next data set is T1, TGK (TgoT Y409G E664K) (Thermococcus gorgonarius, UniProt P56689 SEQ:1-773, Y409G,E664K).
T1 sequence: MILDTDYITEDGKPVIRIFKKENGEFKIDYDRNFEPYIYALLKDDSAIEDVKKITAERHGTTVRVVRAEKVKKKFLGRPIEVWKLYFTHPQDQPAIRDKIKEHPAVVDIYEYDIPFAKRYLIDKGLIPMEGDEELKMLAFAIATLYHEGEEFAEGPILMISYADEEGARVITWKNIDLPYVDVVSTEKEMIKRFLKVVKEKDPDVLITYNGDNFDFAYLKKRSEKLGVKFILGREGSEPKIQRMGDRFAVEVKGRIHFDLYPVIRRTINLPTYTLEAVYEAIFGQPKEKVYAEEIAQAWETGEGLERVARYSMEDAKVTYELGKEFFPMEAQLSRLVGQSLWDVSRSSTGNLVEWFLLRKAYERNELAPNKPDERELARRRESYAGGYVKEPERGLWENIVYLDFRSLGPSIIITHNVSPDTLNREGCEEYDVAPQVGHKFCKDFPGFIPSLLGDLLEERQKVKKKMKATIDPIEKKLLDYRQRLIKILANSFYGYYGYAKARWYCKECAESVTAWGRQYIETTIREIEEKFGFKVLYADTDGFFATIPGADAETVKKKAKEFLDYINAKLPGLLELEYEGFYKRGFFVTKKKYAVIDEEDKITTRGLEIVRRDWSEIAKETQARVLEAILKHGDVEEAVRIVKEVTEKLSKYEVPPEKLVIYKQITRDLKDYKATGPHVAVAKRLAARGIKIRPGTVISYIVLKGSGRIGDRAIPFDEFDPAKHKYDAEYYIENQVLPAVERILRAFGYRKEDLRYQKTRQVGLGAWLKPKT
The experiment in a line: EMSA; second gate mutation vs parental E664; individual mutants and Kd values not stated; Thermopol, 1 mM EDTA. To be noted: label: 5'-FITC primer, 5'-biotin template, 5' template overhang. The method, then: The reactions were mixed, heated to 94° C. for 30 sec and cooled at 0.1° C./sec to 4° C. before loading onto precooled 6% TBE gel (Invitrogen) and run for 1 h at 100V in precooled 1×TBE. Bands were quantified using a Typhoon Trio and ImageQuant and the shift fitted to y=(Bmax*x)/(Kd+x) using MatLab (The MathWorks Ltd).
(A gel shift assay detects complexes by their altered migration in electrophoresis.)

In general, IC50 refers to the concentration needed to halve the response being measured. High values mean a need for much substance, low ones inhibition by little substance. Turning to miniTAR RNA, the figures for the IC50 with Tat (HIV-1?) (IC50 of HNA aptamer T5S8-7 displacing Tat from immobilised miniTAR (CI95 1.3-2.8)) and in the data set with Tat (HIV-1?) (IC50 of RNA aptamer R06 displacing Tat from immobilised miniTAR (CI95 166-675)) were 1.9 nM and 313 nM, respectively.

B1: K0 DNA primer / TempK4 (dsDNA)
DNA 1: GCACGGCAGCACGTG
DNA 2: ACTGCGATGACTGTACTCGTCTAGTAGCACTGCACGTGCTGCCGTGC
On to B1, for which, in the data set with TGK (TgoT Y409G E664K), the binding result is recorded as “binds”.
